Experimental data reported in the supplement of paper PMC9112550, “Optimization of the antimicrobial peptide Bac7 by deep mutational scanning” (BMC Biology, 2022).

Test system: Escherichia coli TOP10
Assay: shrunken log2 fold change of peptide-encoding DNA abundance (4.5 h post-induction vs induction); higher = less antimicrobial activity (less host growth inhibition)
Settings: time post-induction: 4.5 h; library: site-saturation at positions 5, 18, 19, 20
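Further: peptides expressed intracellularly from a pBAD plasmid library in pooled LB shake-flask culture, induced with 0.3% L-arabinose, DNA abundance read by NGS, three biological replicates, DESeq2 with apeglm shrinkage.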

With RRIRLRPPRLPRPRPRPKAGPRP the “shrunken log2 fold change” value was 0.221.

For RRIRTRPPRLPRPRPRPFAMPRP, the “shrunken log2 fold change” value was -0.348.

With RRIRWRPPRLPRPRPRPSFSPRP the “shrunken log2 fold change” value was -0.286.

In the case of RRIRKRPPRLPRPRPRPLEYPRP, the “shrunken log2 fold change” value is reported as -0.123.

In the case of RRIRCRPPRLPRPRPRPEPFPRP, the “shrunken log2 fold change” value is reported as 0.0621.

RRIRFRPPRLPRPRPRPYVCPRP was tested, and the “shrunken log2 fold change” value was -0.301.

With RRIRGRPPRLPRPRPRPCSLPRP the “shrunken log2 fold change” value was 0.237.

For RRIRRRPPRLPRPRPRPWVTPRP, the “shrunken log2 fold change” value was -0.0822.

RRIRERPPRLPRPRPRPTDTPRP was tested, and the “shrunken log2 fold change” value was -0.415.

For RRIRARPPRLPRPRPRPIHKPRP, the “shrunken log2 fold change” value was -0.0416.

RRIRKRPPRLPRPRPRPCYHPRP was tested, and the “shrunken log2 fold change” value was -0.339.

In the case of RRIRRRPPRLPRPRPRPNGHPRP, the “shrunken log2 fold change” value is reported as 0.193.

In the case of RRIRNRPPRLPRPRPRPEQGPRP, the “shrunken log2 fold change” value is reported as 0.111.

For RRIRHRPPRLPRPRPRPTHAPRP, the “shrunken log2 fold change” value was 0.233.

With RRIRFRPPRLPRPRPRPPCWPRP the “shrunken log2 fold change” value was 0.478.

For RRIRIRPPRLPRPRPRPKEQPRP, the “shrunken log2 fold change” value was 0.0307.

In the case of RRIRHRPPRLPRPRPRPGSMPRP, the “shrunken log2 fold change” value is reported as -0.099.

With RRIRLRPPRLPRPRPRPYPLPRP the “shrunken log2 fold change” value was -0.413.

In the case of RRIRNRPPRLPRPRPRPCELPRP, the “shrunken log2 fold change” value is reported as -0.0966.

RRIRHRPPRLPRPRPRPEQVPRP was tested, and the “shrunken log2 fold change” value was -0.0321.

RRIRKRPPRLPRPRPRPKYDPRP was tested, and the “shrunken log2 fold change” value was 0.38.

With RRIRWRPPRLPRPRPRPPVVPRP the “shrunken log2 fold change” value was 0.13.

With RRIRDRPPRLPRPRPRPDNPPRP the “shrunken log2 fold change” value was -0.159.

With RRIRKRPPRLPRPRPRPNWKPRP the “shrunken log2 fold change” value was 0.363.

For RRIRTRPPRLPRPRPRPVMRPRP, the “shrunken log2 fold change” value was -0.0406.

RRIRDRPPRLPRPRPRPDQLPRP was tested, and the “shrunken log2 fold change” value was 0.0963.

For RRIRSRPPRLPRPRPRPMTEPRP, the “shrunken log2 fold change” value was 0.0273.

With RRIRRRPPRLPRPRPRPFGKPRP the “shrunken log2 fold change” value was 0.0788.

For RRIRVRPPRLPRPRPRPPWWPRP, the “shrunken log2 fold change” value was 0.665.

In the case of RRIRTRPPRLPRPRPRPIADPRP, the “shrunken log2 fold change” value is reported as -0.0123.

For RRIRNRPPRLPRPRPRPRMWPRP, the “shrunken log2 fold change” value was 0.28.

With RRIRQRPPRLPRPRPRPFSGPRP the “shrunken log2 fold change” value was -0.0802.

RRIRTRPPRLPRPRPRPPCNPRP was tested, and the “shrunken log2 fold change” value was -0.0091.

RRIRRRPPRLPRPRPRPGGHPRP was tested, and the “shrunken log2 fold change” value was 0.499.

For RRIRIRPPRLPRPRPRPLIKPRP, the “shrunken log2 fold change” value was -0.756.

For RRIRRRPPRLPRPRPRPGGYPRP, the “shrunken log2 fold change” value was -0.0378.

For RRIRSRPPRLPRPRPRPQDGPRP, the “shrunken log2 fold change” value was -0.0336.

For RRIRGRPPRLPRPRPRPKYYPRP, the “shrunken log2 fold change” value was 0.0864.

RRIRQRPPRLPRPRPRPWTFPRP was tested, and the “shrunken log2 fold change” value was -0.0125.

For RRIRDRPPRLPRPRPRPETKPRP, the “shrunken log2 fold change” value was 0.0655.

RRIRWRPPRLPRPRPRPQKYPRP was tested, and the “shrunken log2 fold change” value was -0.348.

With RRIRYRPPRLPRPRPRPPEWPRP the “shrunken log2 fold change” value was 0.0503.

In the case of RRIRGRPPRLPRPRPRPRETPRP, the “shrunken log2 fold change” value is reported as 1.86.

RRIRSRPPRLPRPRPRPEMWPRP was tested, and the “shrunken log2 fold change” value was 0.67.

With RRIRERPPRLPRPRPRPCSFPRP the “shrunken log2 fold change” value was -0.153.

In the case of RRIRARPPRLPRPRPRPGHDPRP, the “shrunken log2 fold change” value is reported as 0.215.

RRIRFRPPRLPRPRPRPLFGPRP was tested, and the “shrunken log2 fold change” value was 0.0395.

RRIRLRPPRLPRPRPRPVPQPRP was tested, and the “shrunken log2 fold change” value was 0.238.

For RRIRQRPPRLPRPRPRPSFRPRP, the “shrunken log2 fold change” value was -0.578.

With RRIRSRPPRLPRPRPRPPKKPRP the “shrunken log2 fold change” value was 0.282.

In the case of RRIRKRPPRLPRPRPRPNVLPRP, the “shrunken log2 fold change” value is reported as -0.112.

RRIRDRPPRLPRPRPRPILLPRP was tested, and the “shrunken log2 fold change” value was -0.28.

In the case of RRIRCRPPRLPRPRPRPFTQPRP, the “shrunken log2 fold change” value is reported as -0.559.

For RRIRPRPPRLPRPRPRPGGPPRP, the “shrunken log2 fold change” value was 0.41.

RRIRWRPPRLPRPRPRPPTAPRP was tested, and the “shrunken log2 fold change” value was 0.876.

RRIRTRPPRLPRPRPRPTPYPRP was tested, and the “shrunken log2 fold change” value was -0.298.

For RRIRYRPPRLPRPRPRPFNPPRP, the “shrunken log2 fold change” value was -0.0161.

RRIRIRPPRLPRPRPRPPVNPRP was tested, and the “shrunken log2 fold change” value was -0.456.

For RRIRQRPPRLPRPRPRPEFIPRP, the “shrunken log2 fold change” value was -0.163.

RRIRARPPRLPRPRPRPYVGPRP was tested, and the “shrunken log2 fold change” value was 0.0297.

RRIRMRPPRLPRPRPRPRIVPRP was tested, and the “shrunken log2 fold change” value was 0.16.

RRIRLRPPRLPRPRPRPHYKPRP was tested, and the “shrunken log2 fold change” value was -0.525.

In the case of RRIRPRPPRLPRPRPRPPQKPRP, the “shrunken log2 fold change” value is reported as 0.19.

For RRIRNRPPRLPRPRPRPHHNPRP, the “shrunken log2 fold change” value was -0.869.

RRIRWRPPRLPRPRPRPATLPRP was tested, and the “shrunken log2 fold change” value was -0.0879.

With RRIRQRPPRLPRPRPRPCPNPRP the “shrunken log2 fold change” value was -0.152.

With RRIRSRPPRLPRPRPRPFQFPRP the “shrunken log2 fold change” value was -0.157.

In the case of RRIRWRPPRLPRPRPRPRPPPRP, the “shrunken log2 fold change” value is reported as 1.11.

With RRIRCRPPRLPRPRPRPSWFPRP the “shrunken log2 fold change” value was -0.147.

For RRIRERPPRLPRPRPRPPEGPRP, the “shrunken log2 fold change” value was 0.233.

With RRIRLRPPRLPRPRPRPYPVPRP the “shrunken log2 fold change” value was -0.025.

With RRIRIRPPRLPRPRPRPYFPPRP the “shrunken log2 fold change” value was -0.909.

RRIRQRPPRLPRPRPRPEYPPRP was tested, and the “shrunken log2 fold change” value was -0.22.

For RRIRQRPPRLPRPRPRPWNQPRP, the “shrunken log2 fold change” value was -0.0236.

For RRIRRRPPRLPRPRPRPNRTPRP, the “shrunken log2 fold change” value was -0.0707.

With RRIRIRPPRLPRPRPRPNVAPRP the “shrunken log2 fold change” value was 0.00755.

For RRIRQRPPRLPRPRPRPSTRPRP, the “shrunken log2 fold change” value was 0.00434.

With RRIRWRPPRLPRPRPRPAPDPRP the “shrunken log2 fold change” value was 1.14.

With RRIRERPPRLPRPRPRPCHNPRP the “shrunken log2 fold change” value was -0.0168.

In the case of RRIRVRPPRLPRPRPRPDHPPRP, the “shrunken log2 fold change” value is reported as -0.386.

With RRIRDRPPRLPRPRPRPFFKPRP the “shrunken log2 fold change” value was -0.127.

With RRIRLRPPRLPRPRPRPVWMPRP the “shrunken log2 fold change” value was 0.372.

With RRIRLRPPRLPRPRPRPLQSPRP the “shrunken log2 fold change” value was 0.0468.

For RRIRLRPPRLPRPRPRPVEYPRP, the “shrunken log2 fold change” value was -0.294.

RRIRRRPPRLPRPRPRPSWPPRP was tested, and the “shrunken log2 fold change” value was 0.0963.

With RRIRCRPPRLPRPRPRPWFSPRP the “shrunken log2 fold change” value was -0.208.

With RRIRARPPRLPRPRPRPDWRPRP the “shrunken log2 fold change” value was 0.146.

For RRIRSRPPRLPRPRPRPHDEPRP, the “shrunken log2 fold change” value was 0.0683.

For RRIRPRPPRLPRPRPRPVIKPRP, the “shrunken log2 fold change” value was -0.215.

In the case of RRIRVRPPRLPRPRPRPTIDPRP, the “shrunken log2 fold change” value is reported as -0.0691.

For RRIRFRPPRLPRPRPRPEIKPRP, the “shrunken log2 fold change” value was 0.058.

RRIRTRPPRLPRPRPRPNTNPRP was tested, and the “shrunken log2 fold change” value was -0.556.

In the case of RRIRERPPRLPRPRPRPMGTPRP, the “shrunken log2 fold change” value is reported as -0.272.

For RRIRSRPPRLPRPRPRPGPVPRP, the “shrunken log2 fold change” value was 0.384.

In the case of RRIRCRPPRLPRPRPRPQSEPRP, the “shrunken log2 fold change” value is reported as -0.398.

RRIRQRPPRLPRPRPRPKDNPRP was tested, and the “shrunken log2 fold change” value was -0.23.

For RRIRVRPPRLPRPRPRPIRLPRP, the “shrunken log2 fold change” value was -0.419.

With RRIRYRPPRLPRPRPRPYEMPRP the “shrunken log2 fold change” value was -0.104.

In the case of RRIRCRPPRLPRPRPRPFIIPRP, the “shrunken log2 fold change” value is reported as -0.577.

With RRIRARPPRLPRPRPRPFILPRP the “shrunken log2 fold change” value was -0.39.

RRIRTRPPRLPRPRPRPHPKPRP was tested, and the “shrunken log2 fold change” value was -0.0492.

In the case of RRIRTRPPRLPRPRPRPDVEPRP, the “shrunken log2 fold change” value is reported as 0.053.

For RRIRRRPPRLPRPRPRPYMCPRP, the “shrunken log2 fold change” value was 0.154.

With RRIRKRPPRLPRPRPRPCNHPRP the “shrunken log2 fold change” value was -0.16.

RRIRSRPPRLPRPRPRPFGWPRP was tested, and the “shrunken log2 fold change” value was 0.0625.

With RRIRLRPPRLPRPRPRPIYNPRP the “shrunken log2 fold change” value was -0.989.

RRIRCRPPRLPRPRPRPGFIPRP was tested, and the “shrunken log2 fold change” value was 0.067.

For RRIRLRPPRLPRPRPRPQPGPRP, the “shrunken log2 fold change” value was 0.0607.

For RRIRSRPPRLPRPRPRPKAMPRP, the “shrunken log2 fold change” value was -0.148.

RRIRARPPRLPRPRPRPFGYPRP was tested, and the “shrunken log2 fold change” value was 0.167.

In the case of RRIRCRPPRLPRPRPRPVFRPRP, the “shrunken log2 fold change” value is reported as -0.128.

RRIRTRPPRLPRPRPRPLKIPRP was tested, and the “shrunken log2 fold change” value was 0.0669.

RRIRNRPPRLPRPRPRPPLVPRP was tested, and the “shrunken log2 fold change” value was 0.089.

In the case of RRIRYRPPRLPRPRPRPHHRPRP, the “shrunken log2 fold change” value is reported as -0.306.

For RRIRARPPRLPRPRPRPVILPRP, the “shrunken log2 fold change” value was -0.0803.

RRIRGRPPRLPRPRPRPIQAPRP was tested, and the “shrunken log2 fold change” value was 1.16.

In the case of RRIRARPPRLPRPRPRPVEHPRP, the “shrunken log2 fold change” value is reported as 0.068.

In the case of RRIRNRPPRLPRPRPRPTHYPRP, the “shrunken log2 fold change” value is reported as -0.109.

With RRIRMRPPRLPRPRPRPVSEPRP the “shrunken log2 fold change” value was -0.38.

With RRIRMRPPRLPRPRPRPAQQPRP the “shrunken log2 fold change” value was 0.612.

In the case of RRIRWRPPRLPRPRPRPLLYPRP, the “shrunken log2 fold change” value is reported as 0.0998.

In the case of RRIRGRPPRLPRPRPRPEMVPRP, the “shrunken log2 fold change” value is reported as 2.43.

With RRIRLRPPRLPRPRPRPYILPRP the “shrunken log2 fold change” value was -0.317.

For RRIRCRPPRLPRPRPRPAYMPRP, the “shrunken log2 fold change” value was 0.119.

For RRIRCRPPRLPRPRPRPWQDPRP, the “shrunken log2 fold change” value was -0.154.
